# Measurements published in patent publication US20220370565A1 (SHANGHAI INSTITUTE OF BIOLOGICAL PRODCCTS CO., LTD., priority 2019, published 2022).
# How the values were obtained:
# human liver cancer Huh-7 = experiment: subcutaneous transplanted tumors of human liver cancer Huh-7 in nude mice; format: in vivo; settings: for % T/C D 17 / Mean tumor volume D 17 SEM / Tumor inhibition rate % D 17 / Mean tumor volume D 0 SEM: D 0, 3, 7, 10, 14; for Mean tumor volume D 0 SEM: baseline at grouping
# Method: (§1) The indicators of tumor inhibition experiments in mice were to investigate the effect of drugs on tumor growth, and the specific indicators were T/C % or the rate of tumor growth inhibition TGI (%).
# (§2) The diameter of the tumor was measured with a vernier caliper twice a week, and the formula for calculating the tumor volume (V) was: V=½xaxb^2, wherein a and b represented the length and width, respectively.
# (§3) T/C(%)=(T−T0)/(C−C0)×100,
# (§4) If a tumor was smaller than the initial volume, i.e., T<T0 or C<C0, it was defined as partial regression (PR) of the tumor; if a tumor disappeared completely, it was defined as complete regression (CR) of the tumor.
# (§5) At the end of the experiment (e.g., D21), reaching the experimental endpoint, or the tumor volume reached 1,500 mm^3, the animals were sacrificed after CO2 anesthesia, and then the tumors were dissected and photographed.
# Nude mice were subcutaneously inoculated with 6×10^6 human liver cancer Huh-7 cells. After the tumor grew to 100-150 mm^3, the animals were grouped according to tumor volume (D0). Mice were administered subcutaneously (SC) or intravenously (IV), twice a week (BIW); the administration volume was 10 mL/kg; the solvent group was administered with the same volume of “solvent” (normal saline); specific dosage and administration regimen were shown in Table 2. The tumor volumes were measured twice a week, the mice were weighed, and the data were recorded.
# (§6) Two-tailed Student's t-test was used to compare tumor volumes between the two groups, and P<0.05 was defined as a statistically significant difference.
# [1] = test system: human gastric cancer NCI-N87; experiment: subcutaneous transplanted tumors of human gastric cancer NCI-N87 in nude mice; format: in vivo; settings: D 0, 3, 7, 10, 14, 17; for Mean tumor volume D 0 SEM: baseline at grouping
# Method: as §1, §2, §3, §4, §5
# Nude mice were subcutaneously (SC) inoculated with 6×10^6 human gastric cancer NCI-N87 cells. After the tumor grew to 100-150 mm^3, the animals were grouped according to tumor volume (D0). Mice were administered subcutaneously (SC) or intravenously (IV), twice a week (BIW); the administration volume was 10 mL/kg; the solvent group was administered with the same volume of “solvent” (normal saline); specific dosage and administration regimen were shown in Table 1. The tumor volumes were measured twice a week, the mice were weighed, and the data were recorded.
# as §6
# half-life in rats = format: in vivo
# BT474 = experiment: SRB method, proliferation of tumor cells in vitro, BT474; format: cell-based, human; settings: BT474 (Breast cancer), 120 hours of drug action
# Method: (§7) Sulfonyl rhodamine B protein staining method (SRB method) was used to evaluate the effects of using PEG-interferon alone or in combination with other drugs on the proliferation of tumor cells in vitro.
# (§8) A certain number of cells in logarithmic growth phase were seeded in 96-well culture plates. After 24 hours of adherent growth, different concentrations (final concentrations of 1, 3, 10, 30, 100, 300, 1,000, 3,000, 10,000 nM) of drugs were added. After 120 hours of drug action, cells were fixed with trichloroacetic acid. Then stained with SRB solution; finally, Tris solution was added to dissolve SRB, and OD value was measured at a wavelength of 510 nm by a microplate reader.
# Breast cancer cells BT474 were used, and the corresponding inhibition rate (%) was calculated.
# N87 = experiment: SRB method, proliferation of tumor cells in vitro, N87; format: cell-based, human; settings: N87 (Gastric cancer), 120 hours of drug action
# Method: as §7, §8
# HGC27 = experiment: SRB method, proliferation of tumor cells in vitro, HGC27; format: cell-based; settings: HGC27 (Gastric cancer), 120 hours of drug action
# Method: as §7, §8
# Huh-7 = experiment: SRB method, proliferation of tumor cells in vitro, Huh-7; format: cell-based, human; settings: Huh-7 (Liver cancer), 120 hours of drug action
# Method: as §7, §8
# AGS = experiment: SRB method, proliferation of tumor cells in vitro, AGS; format: cell-based; settings: AGS (Gastric cancer), 120 hours of drug action
# Method: as §7, §8
# HCC1806 = experiment: SRB method, proliferation of tumor cells in vitro, HCC1806; format: cell-based; settings: HCC1806 (Breast cancer), 120 hours of drug action
# Method: as §7, §8
# Hep3B = experiment: SRB method, proliferation of tumor cells in vitro, Hep3B; format: cell-based; settings: Hep3B (Liver cancer), 120 hours of drug action
# Method: as §7, §8
# [2] = test system: human breast cancer BT-474; experiment: subcutaneous transplanted tumors of human breast cancer BT-474 in nude mice; format: in vivo; settings: for % T/C D 20 / Mean tumor volume D 20 SEM / Tumor inhibition rate % D 20 / Mean tumor volume D 0 SEM: D 0, 3, 7, 10, 14, 17; for Mean tumor volume D 0 SEM: baseline at grouping
# Method: as §1, §2, §3, §4, §5
# Nude mice were subcutaneously inoculated with 1×10^7 human breast cancer BT-474 cells. After the tumor grew to 100-150 mm^3, the animals were grouped according to tumor volume (D0). Mice were administered subcutaneously (SC) or intravenously (IV), twice a week (BIW); the administration volume was 10 mL/kg; the solvent group was administered with the same volume of “solvent” (normal saline); specific dosage and administration regimen were shown in Table 3. The tumor volumes were measured twice a week, the mice were weighed, and the data were recorded.
# as §6
# A549 = experiment: SRB method, proliferation of tumor cells in vitro, A549; format: cell-based; settings: A549 (Lung cancer), 120 hours of drug action
# Method: as §7, §8
# HepG2 = experiment: SRB method, proliferation of tumor cells in vitro, HepG2; format: cell-based; settings: HepG2 (Liver cancer), 120 hours of drug action
# Method: as §7, §8
# MCF-7 = experiment: SRB method, proliferation of tumor cells in vitro, MCF-7; format: cell-based; settings: MCF-7 (Breast cancer), 120 hours of drug action
# Method: as §7, §8
# NCI-H292 = experiment: SRB method, proliferation of tumor cells in vitro, NCI-H292; format: cell-based; settings: NCI-H292 (Lung cancer), 120 hours of drug action
# Method: as §7, §8
# [3] = half-life in cynomolgus monkeys; format: in vivo
# hairy cell leukemia = hairy cell leukemia patients; cited from earlier work
# [4] = specific activity in vitro
# [5] = test system: metastatic renal cancer and multiple myeloma; settings: high-dose (500 μg/day) injection, patients; cited from earlier work
# [6] = Avastin 10 mg/kg IV (first dose doubled)
# [7] = PEGylated (PEG) interferon 0.1 mg/kg SC
# [8] = PEGylated (PEG) interferon 1 mg/kg SC
# [9] = PEGylated (PEG) interferon 10 mg/kg SC
# [10] = PEGylated (PEG) interferon 10 mg/kg SC, 2 times a week, 6 times in total, D20
molecule,measurement,setting,value
"Avastin: Bevacizumab injection, commercially available monoclonal antibody purchased from Roche Pharmaceuticals [reference compound]",% T/C D 17,human liver cancer Huh-7; [6],60%
same,Mean tumor volume D 17 SEM,human liver cancer Huh-7; [6],1791.6 ± 105.7 mm^3
same,Tumor inhibition rate % D 17,human liver cancer Huh-7; [6],40%
same,Mean tumor volume D 0 SEM,human liver cancer Huh-7; [6],122.7 ± 1.8 mm^3
same,% T/C D 21,[1]; [6],51%
same,Mean tumor volume D 21 SEM,[1]; [6],561.1 ± 53.4 mm^3
same,Tumor inhibition rate % D 21,[1]; [6],49%
same,Mean tumor volume D 0 SEM,[1]; [6],115.7 ± 2.7 mm^3
"PEGylated (PEG) interferon: recombinant human interferon α1b modified with a single PEG of about 20,000 Daltons; lyophilized powder injection, Shanghai Institute of Biological Products (protein, UniProt P01562 24-189, looked up, single 20 kDa PEG, recombinant human interferon α1b modified with a single PEG of about 20,000 Daltons; lyophilized powder injection, Shanghai Institute of Biological Products) Interferon alpha-1/13: CDLPETHSLDNRRTLMLLAQMSRISPSSCLMDRHDFGFPQEEFDGNQFQKAPAISVLHELIQQIFNLFTTKDSSAAWDEDLLDKFCTELYQQLNDLEACVMQEERVGETPLMNADSILAVKKYFRRITLYLTEKKYSPCAWEVVRAEIMRSLSLSTNLQERLRRKE",half-life,half-life in rats,13.98 h
same,Inhibition rate (%)@100 μg/mL,BT474,19.6%
same,Inhibition rate (%)@100 μg/mL,N87,32.5%
same,Inhibition rate (%)@100 μg/mL,HGC27,52.3%
same,Inhibition rate (%)@100 μg/mL,Huh-7,29.3%
same,Inhibition rate (%)@100 μg/mL,AGS,44.0%
same,Inhibition rate (%)@100 μg/mL,HCC1806,32.6%
same,Inhibition rate (%)@100 μg/mL,Hep3B,58.4%
same,% T/C D 17,human liver cancer Huh-7; [7],110%
same,Mean tumor volume D 17 SEM,human liver cancer Huh-7; [7],3188.0 ± 282.5 mm^3
same,Tumor inhibition rate % D 17,human liver cancer Huh-7; [7],−10%
same,Mean tumor volume D 0 SEM,human liver cancer Huh-7; [7],117.7 ± 2.0 mm^3
same,% T/C D 17,human liver cancer Huh-7; [8],107%
same,Mean tumor volume D 17 SEM,human liver cancer Huh-7; [8],3110.6 ± 438.0 mm^3
same,Tumor inhibition rate % D 17,human liver cancer Huh-7; [8],−7%
same,Mean tumor volume D 0 SEM,human liver cancer Huh-7; [8],119.8 ± 2.6 mm^3
same,% T/C D 17,human liver cancer Huh-7; [9],91%
same,Mean tumor volume D 17 SEM,human liver cancer Huh-7; [9],2681.9 ± 435.7 mm^3
same,Tumor inhibition rate % D 17,human liver cancer Huh-7; [9],9%
same,Mean tumor volume D 0 SEM,human liver cancer Huh-7; [9],123.8 ± 1.9 mm^3
same,inhibitory effect on the growth of subcutaneous transplanted tumors,"human liver cancer Huh-7; PEGylated (PEG) interferon 0.1, 1, 10 mg/kg, SC, 2 times a week, 5 times in total",no significant inhibitory effect
same,% T/C D 20,[2]; [7],34%
same,Mean tumor volume D 20 SEM,[2]; [7],422.2 ± 97.0 mm^3
same,Tumor inhibition rate % D 20,[2]; [7],66%
same,Mean tumor volume D 0 SEM,[2]; [7],91.2 ± 1.3 mm^3
same,tumors regressed partially (PR),"[2]; PEGylated (PEG) interferon 1 mg/kg SC, 2 times a week, 6 times in total, D20",3/6
same,% T/C D 20,[2]; [8],2%
same,Mean tumor volume D 20 SEM,[2]; [8],115.7 ± 26.1 mm^3
same,Tumor inhibition rate % D 20,[2]; [8],98%
same,Mean tumor volume D 0 SEM,[2]; [8],94.1 ± 4.3 mm^3
same,tumors regressed completely (CR),[2]; [10],2/6
same,tumors regressed partially (PR),[2]; [10],4/6
same,tumors regressed partially (PR),"[2]; PEGylated (PEG) interferon 10 mg/kg SC, 6 times in total, end of the experiment (D60)",4/6
same,% T/C D 20,[2]; [9],−56%
same,Mean tumor volume D 20 SEM,[2]; [9],41.4 ± 15.7 mm^3
same,Tumor inhibition rate % D 20,[2]; [9],156%
same,Mean tumor volume D 0 SEM,[2]; [9],94.8 ± 4.2 mm^3
same,Inhibition rate (%)@100 μg/mL,A549,33.7%
same,Inhibition rate (%)@100 μg/mL,HepG2,20.2%
same,Inhibition rate (%)@100 μg/mL,MCF-7,24.2%
same,Inhibition rate (%)@100 μg/mL,NCI-H292,41.5%
same,half-life,[3],22.03 ± 3.32 h
same,% T/C D 21,[1]; [7],81%
same,Mean tumor volume D 21 SEM,[1]; [7],817.1 ± 84.9 mm^3
same,Tumor inhibition rate % D 21,[1]; [7],19%
same,Mean tumor volume D 0 SEM,[1]; [7],112.7 ± 3.9 mm^3
same,% T/C D 21,[1]; [8],68%
same,Mean tumor volume D 21 SEM,[1]; [8],712.4 ± 68.4 mm^3
same,Tumor inhibition rate % D 21,[1]; [8],32%
same,Mean tumor volume D 0 SEM,[1]; [8],117.4 ± 2.8 mm^3
same,% T/C D 21,[1]; [9],45%
same,Mean tumor volume D 21 SEM,[1]; [9],506.1 ± 33.0 mm^3
same,Tumor inhibition rate % D 21,[1]; [9],55%
same,Mean tumor volume D 0 SEM,[1]; [9],112.3 ± 2.3 mm^3
"ordinary interferon α1b: unmodified recombinant human interferon α1b, 166 amino acids, SEQ ID No.: 1 (protein, UniProt P01562 24-189, looked up) Interferon alpha-1/13: CDLPETHSLDNRRTLMLLAQMSRISPSSCLMDRHDFGFPQEEFDGNQFQKAPAISVLHELIQQIFNLFTTKDSSAAWDEDLLDKFCTELYQQLNDLEACVMQEERVGETPLMNADSILAVKKYFRRITLYLTEKKYSPCAWEVVRAEIMRSLSLSTNLQERLRRKE",half-life,half-life in rats,1.84 h
same,adverse reaction,hairy cell leukemia,only a short-term low-grade fever
same,effective rate,hairy cell leukemia,63.64%
same,remission rate,hairy cell leukemia,36.36%
same,specific activity relative to ordinary interferon α2a and 2b,[4],10%
same,adverse reactions compared with other ordinary interferons,[5],milder
same,therapeutic effect,[5],certain therapeutic effect
same,half-life,[3],3.27 ± 1.48 h
